The target of the experiment is histone H4 (in the nucleosome) (Xenopus laevis, UniProt P62799). Briefly: cryo-EM structure.

B1: DDM1-HELLS chimeric protein (DDM1^HELLS) (enzyme)
chain: MVSLRSRKVIPASEMVSDGKTEKDASGDSPTSVLNEEENCEEKSVTVVEEEILLAKNGDSSLISEAMAQEEEQLLKLREDEEKANNAGSAVAPNLNETQFTKLDELLTQTQLYSEFLLEKMEDITINGIESESQKAEPEKTGRGRKRKAASQYNNTKAKRAVAAMISRSKEDGETINSDLTEEETVIKLQNELCPLLTGGQLKSYQLKGVKWLISLWQNGLNGILADQMGLGKTIQTIGFLSHLKGNGLDGPYLVIAPLSTLSNWFNEIARFTPSINAIIYHGDKNQRDELRRKHMPKTVGPKFPIVITSYEVAMNDAKRILRHYPWKYVVIDEGHRLKNHKCKLLRELKHLKMDNKLLLTGTPLQNNLSELWSLLNFILPDIFTSHDEFESWFDFSEKNKNEATKEEEEKRRAQVVSKLHGILRPFILRRMKCDVELSLPRKKEIIMYATMTDHQKKFQEHLVNNTLEAHLGENAIRGIELSPTGRPKRRTRKSINYSKIDDFPNELEKLISQIQPEVDRERAVVEVNIPVEQGWKGKLNNLVIQLRKNCNHPDLLQGQIDGSYLYPPVEEIVGQCGKFRLLERLLVRLFANNHKVLIFSQWTKLLDIMDYYFSEKGFEVCRIDGSVKLDERRRQIKDFSDEKSSCSIFLLSTRAGGLGINLTAADTCILYDSDWNPQMDLQAMDRCHRIGQTKPVHVYRLSTAQSIETRVLKRAYSKLKLEHVVIGQGQFHQERAKSSTPLEEEDILALLKEDETAEDKLIQTDISDADLDRLLDRSDLTITAPGETQAAEAFPVKGPGWEVVLPSSGGMLSSLNS
Turning to B1, the binding result was “binds”.

Source of the values: paper doi:10.1101/2023.08.09.551721 (bioRxiv, 2023).
